We go through 2 compounds from publication PMC12350541, “Continuous Spectrophotometric Assay for Defluorinase and Dechlorinase Activities With α‐Halocarboxylic Acids” (Microbial Biotechnology, 2025).

For one data set, the system named is O=C(O)C(F)Cl. In words: LDH-coupled NADH oxidation, A340, 96-well plate, Michaelis-Menten fit. In kind it is biochemical, Dechloromonas aromatica (nom. nud.). The settings on record: 0.1 M Tris pH 8.0, room temperature not stated for plate, 40 ug DEF2, 50 ug LDH, 400 uM NADH, racemic substrate 1-30 mM.
In data set [1] the target is T1, rabbit heart lactate dehydrogenase (Oryctolagus cuniculus, UniProt A0A5F9DPL1).
T1 construct: gene LDHB; commercial native enzyme from heart (MilliporeSigma), tetramer
As to the kind of experiment: NADH oxidation, A340. As to conditions: 0.300 mM NADH, 0.1 M Tris pH 9.0. In kind it is biochemical.

T1 sequence (A0A5F9DPL1 1-334): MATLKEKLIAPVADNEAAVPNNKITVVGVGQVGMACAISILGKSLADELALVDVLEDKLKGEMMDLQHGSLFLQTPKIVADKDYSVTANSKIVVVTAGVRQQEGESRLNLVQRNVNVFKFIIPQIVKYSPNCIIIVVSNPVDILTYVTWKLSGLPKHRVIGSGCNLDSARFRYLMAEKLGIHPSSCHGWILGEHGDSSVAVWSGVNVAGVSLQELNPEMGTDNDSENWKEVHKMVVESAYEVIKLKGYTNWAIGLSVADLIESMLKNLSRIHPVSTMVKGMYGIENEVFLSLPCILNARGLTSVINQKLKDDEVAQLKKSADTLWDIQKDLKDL

What is called Km is the substrate concentration at which the rate is half of its maximum. One may read the kcat as the number of substrate molecules converted per active site and unit of time at saturation. As for DEF2 (Dechloromonas aromatica RCB), in the data set with O=C(O)C(F)Cl, the Km stood at 6.0 mM and the kcat came to 0.00533 s⁻¹.

Consider `O=CC(=O)O` [glyoxylate], for which, in data set [1], the “NADH oxidation, A340” value is “activity with commercial rabbit heart lactate dehydrogenase with glyoxylate was too slow”.
